Results: the Human Domainome abundance scans (Beltran et al. 2025)

B1: Retinoic acid receptor RXR-alpha, residues 132 to 208; numbered along this chain, P19793 (parent)
chain: KHICAICGDRSSGKHYGVYSCEGCKGFFKRTVRKDLTYTCRDNKDCLIDKRQRNRCQYCRYQKCLAMGMKREAVQEE

Variants of: B1
Test: abundance fitness (aPCA) (normalised: wild type 0, dead -1); higher = more abundant; growth selection in yeast, the domain comes from the species named
Conditions: Homo sapiens

Abundance fitness: each site, then its substitutions
K29: R -0.003 | P -0.531 | V 0.054 | T 0.021 | W 0.003 | S -0.059
I48: V 0.051 | F -0.108 | Y -0.342 | W 0.007 | P -0.007 | G -0.007 | R -0.02 | T 0 | D -0.031 | S -0.04 | A -0.05 | C -0.035 | N 0.065 | E -0.162 | Q 0.21 | H 0.061 | M 0.03 | L 0.016 | K 0.094
K50: V 0.052 | A 0.037 | E -0.077 | H -0.029 | Q 0.047 | S -0.108 | M 0.043 | N 0.124 | Y -0.092 | G 0.015 | I -0.026 | R -0.026 | C -0.153 | P -0.029 | T -0.099 | W -0.107 | F -0.008 | D 0.019
Y38: P 0.04 | W -0.086 | H 0.027 | L 0.012 | N -0.101 | T 0.036 | A -0.061 | C -0.353 | D -0.115 | I -0.041 | E -0.063 | S -0.031 | V 0.001 | R -0.11 | F 0.078 | Q -0.041
V32: F 0 | P -0.298 | E 0.026 | R -0.171 | S -0.085 | I -0.083 | Y -0.079 | T 0.024 | Q -0.017 | W -0.211 | H -0.064 | A -0.013 | K -0.012 | G -0.046 | N 0.015
D35: Y -0.131 | G -0.028 | N -0.164
T31: Y -0.094 | V -0.003 | W -0.043 | P -0.641 | A -0.03 | M 0 | H -0.132 | R -0.504 | F -0.078 | Q -0.079 | E -0.188 | L -0.136 | S -0.02 | N -0.114 | I -0.092 | C -0.005 | K -0.233
R41: Q 0.041 | G 0.095 | H 0.06 | N -0.05 | L -0.091 | E 0.14 | T 0.035 | M 0.018 | K 0.026 | D 0.056 | I 0.041 | F 0.032 | Y -0.002 | W -0.007 | V -0.01 | P 0.059 | C 0.096
R51: H -0.052 | A 0.007 | K 0.082 | C -0.053 | M -0.025 | E -0.005 | L 0.022 | G 0.015 | D -0.073 | I -0.001 | P 0.045 | N -0.071
D49: H -0.011 | N 0.048 | A 0.009 | R -0.183 | V 0.036 | P -0.018 | I 0.069 | C -0.117 | L -0.102 | F -0.109 | Y -0.183 | W 0.06 | K 0.026 | Q 0.036 | E -0.005 | S -0.037 | G 0.07 | T -0.07
D45: V -0.021 | E 0.043 | C -0.049 | R 0.001 | Y -0.062 | P -0.078 | M -0.404 | F -0.104 | I -0.123 | H -0.066 | W -0.025 | N -0.034 | K 0.058 | T -0.051 | S -0.029 | L -0.062
N43: L -0.009 | W -0.008 | A 0.008 | Y -0.043 | H 0.066 | R -0.003 | D -0.181 | K 0.1 | Q -0.099 | M 0.02 | V 0.013 | E 0.053 | S 0.019 | F -0.071 | P -0.065 | C -0.115 | G 0.053 | T 0.049 | I 0.019
C40: E -0.405 | T -0.643 | G -0.815 | M -0.621 | A -0.602 | V -0.737 | K -0.504 | N -0.732 | D -0.314 | R -0.659 | H -0.09 | P -0.591 | W -0.832 | Q -0.707 | I -0.697 | L -0.454
L47: Q -0.095 | M -0.048 | R -0.109 | T 0.012 | V -0.008 | N -0.098 | E 0.004 | Y -0.03 | D -0.072 | H -0.016 | K -0.062 | P -0.045 | F 0.011 | S -0.122 | G 0.016 | A 0.005 | W 0.005 | I -0.002
T39: I 0.099 | Q -0.033 | V 0.05 | D 0.045 | H 0.134 | M 0.046 | S 0.03 | N 0.03 | Y 0.006 | P 0.027 | R 0.008 | W -0.009 | E 0.048 | G 0.045 | K 0.027 | L -0.052 | C 0.04 | A -0.015
K44: R -0.019 | M -0.03 | S -0.011 | P -0.022 | L -0.083 | E -0.033 | V -0.035 | C -0.025 | Y -0.119 | N 0.025 | I 0.05 | G 0.052 | Q -0.04 | A 0.001 | F -0.024 | T 0.057 | D 0.092 | H -0.086
C46: I -0.436 | S -0.274 | P -0.155 | L -0.378 | N -0.22 | F -0.291 | R -0.301 | K -0.207 | E -0.189 | A -0.142 | Y -0.383 | V -0.193 | M -0.206 | D -0.035 | G -0.186 | Q -0.288
R30: Q -0.129 | M -0.141 | W -0.167 | V -0.353 | C -0.41 | T -0.124 | A -0.162 | G -0.087 | I -0.352 | P -0.554 | H -0.252 | E -0.041 | D -0.008 | S -0.158 | F -0.362 | K 0.073 | L -0.178
L36: Y -0.055 | T -0.028 | D 0.053 | R 0.008 | N -0.024 | Q 0.005 | C 0.087 | K -0.018 | E 0.021 | G 0.022 | P -0.067 | M -0.061 | W -0.028 | V 0.009 | H 0.014 | F 0.046 | A 0.031
R33: V 0.018 | I 0.004 | M -0.003 | Y -0.158 | N -0.017 | S -0.074 | G -0.014 | W -0.002 | F -0.033 | A 0.038 | E 0.044 | P -0.143 | T -0.012 | K 0.05 | L -0.096 | D -0.005 | C -0.287
T37: W -0.051 | L -0.05 | K 0.066 | N 0.001 | S -0.025 | H 0.053 | A 0.026 | F -0.046 | R -0.039 | M -0.147 | I -0.016 | G 0.047 | E 0.052 | D 0.082 | Q 0.059 | Y -0.082 | V 0.035 | P 0.064 | C 0.074
D42: N 0.02 | G 0.091
